Results on six sequences are retold here after publication PMC12327846.

In the data set the target is T1, DtxR (Corynebacterium glutamicum) (UniProt Q8NP95).
T1 sequence: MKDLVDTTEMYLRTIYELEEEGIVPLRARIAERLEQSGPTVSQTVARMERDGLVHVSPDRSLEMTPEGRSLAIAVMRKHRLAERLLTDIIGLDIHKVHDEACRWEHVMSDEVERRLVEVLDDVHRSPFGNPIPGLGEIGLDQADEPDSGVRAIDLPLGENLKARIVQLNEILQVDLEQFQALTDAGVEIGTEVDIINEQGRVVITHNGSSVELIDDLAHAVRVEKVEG
The data set can be described thus: EMSA. Conditions: EMSA: 31 nM DNA, DtxR at 0/50/200-fold (A) or 0/300/400-fold (B) excess; 50 mM Tris-HCl pH 7.5, 5 mM MgCl2 (rest of buffer not in material); 30 min, room …. (In general: In EMSA bound probe runs differently from free probe, usually more slowly.)
Take “GGACCTAAGCGTGTAAGATGGAAACGTCTGTATCGGATAAGTAGCGAGGAGTGTTCGTTAAAAGTGGCAAACACTGAACACAATTATGACGCTTCATCGATCACCATCCTTGAAGGTCTTG (double strand) [gyrB promoter 121 bp]”: the binding entry is on record as “no binding”. The result for “TTTGACGTGCTTTTTTAGCACGCCATTAAGCTAAAAATAAGGTTAGGGTGCGTTATGTTTTCAGGTATCAAAAGGTGCTAATGCCTTTATTGTGTTTCGCATTGTCATTTACCACATGAAG (double strand) [cepA promoter 121 bp]” reads “binds”. The same measure for “AACCTGGGGGTTATATAAAAAACTTCACAAAAAGGTTGCATCCGCATCAACCGAAAGATAGTGTGTGTGAGGCAAGCCTAAGTAAACTTCTTCAAGGTTCGGGCTGGTTCCTTGAAGACGG (double strand) [xerC promoter 121 bp]”: “binds”; for “TAGTCGTATCAAAAAGTGCTCTGATCTTAACTTTGCCCTACCTAAATACATGACCCCACCACGACGGCCAGTACTAACGACAGAATCCACTAGCGAACCCATTTATTAACAAACATTGCAA (double strand) [NCgl2776 promoter 121 bp (primers named NCgl2766)]”: “binds”; for “GTGGCGCTTTGCCTGTGTTGCTTAGGCGGCGTTGAAAATGAACTACGAATGAAAAGTTCGGGAATTGTCTAATCCGTACTAAGCTGTCTACACAATGTCTACTTCAGTTACTTCACCAGC (double strand) [metH promoter 121 bp]”: “binds”. The result for “GAGTAGTAGCAGTGGGTATTTGCAAGCCTTTGACAAGTTACTAAACCGTGCTACCGAAACCCCTCGTGTTTAAATCTAGAAGTTTAAAGGGTGAAAACAGTCCATTACTTAAGCACCAATC (double strand) [NCgl0177 promoter 121 bp]” reads “no binding”.
